According to patent publication CN115368458A (BIO THERA SOLUTIONS LTD, dated 2022):
Substitutions are numbered along the chain they refer to.

B1: 抗体P59-L12 (antibody, IgG1, V domains shown)
VH: EVQLVESGGGLVQPGGSLRLSCAASGFSFDTYAMSWVRQAPGKGLEWVSAISGDTGVTGYADSVKGRFTISRDNSKNTLYLQMNSLRAEDTAVYYCARDRYAYLVDGWFDYWGQGTLVTVSS
VL: DIQMTQSPSSLSASVGDRVTITCRASQGISSYLAWYQQKPGKAPKLLIYAASSLQSGVPSRFSGSGSGTDFTLTISSLQPEDFATYYCQTSDFFPNPVTFGQGTKVEIK
B2: 抗体P59-L6 (antibody, IgG1, V domains shown)
VH: B1 VH
VL: B1 VL with Q89A, T90Q, S91Y, F94S, P95F, N96Y, P97G
B3: 抗体P59-L1 (antibody, IgG1, V domains shown)
VH: B1 VH
VL: B1 VL with T90Q, S91A, D92S, F93Y, F94T, P95G, N96D
B4: 抗体P59-L17 (antibody, IgG1, V domains shown)
VH: B1 VH
VL: B1 VL with S91W, D92S, F93G, F94W, N96D, P97Y, V98L
notes: also called P59-17

Tests used:
[1] = molecular target: T1, 人源hCD73-His (北京义翘神州, Catalog 10904-H08H) (human, UniProt P21589 27-547); experiment: SPR, Biacore T200, antibody captured on Protein A chip, hCD73-His as analyte from 32 nM, 1:1 model
T1 construct: Bought protein; also called 人CD73; not shown: His tag
T1 sequence (looked up): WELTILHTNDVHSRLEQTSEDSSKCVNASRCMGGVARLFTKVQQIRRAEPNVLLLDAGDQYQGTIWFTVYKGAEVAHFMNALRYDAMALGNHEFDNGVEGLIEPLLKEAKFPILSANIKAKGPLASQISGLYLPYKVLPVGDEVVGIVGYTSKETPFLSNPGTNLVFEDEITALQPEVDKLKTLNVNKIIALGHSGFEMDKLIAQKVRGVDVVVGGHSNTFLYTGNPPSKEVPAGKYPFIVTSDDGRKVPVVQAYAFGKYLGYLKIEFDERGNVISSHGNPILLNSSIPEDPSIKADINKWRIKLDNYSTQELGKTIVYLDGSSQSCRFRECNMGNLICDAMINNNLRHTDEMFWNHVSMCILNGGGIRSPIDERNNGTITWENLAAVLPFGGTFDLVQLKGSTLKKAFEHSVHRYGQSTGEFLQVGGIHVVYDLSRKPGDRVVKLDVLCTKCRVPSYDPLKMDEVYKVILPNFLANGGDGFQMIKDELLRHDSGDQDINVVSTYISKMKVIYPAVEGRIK

[2] = molecular target: T2, 食蟹猴cCD73-His (近岸生物, Catalog CD3-C52H9) (cynomolgus monkey, UniProt A0A2K5V5U7 27-547); experiment: ELISA, cCD73-His coated at 2 μg/ml, antibody from 4 μg/ml in 3-fold steps, anti-h-Kappa-HRP
T2 construct: Bought protein; also called 食蟹猴CD73; not shown: His tag
T2 sequence: T1 sequence (looked up) with M199T, T350A, V466I

[3] = molecular target: T3, 鼠源mCD73-His (近岸生物, Catalog CD3-M52H9) (mouse, UniProt Q61503 29-551); experiment: ELISA, mCD73-His coated at 2 μg/ml, anti-h-Kappa-HRP detection; NA表示不结合或基本不结合
T3 construct: Bought protein; also called 小鼠CD73; not shown: His tag
T3 sequence (looked up): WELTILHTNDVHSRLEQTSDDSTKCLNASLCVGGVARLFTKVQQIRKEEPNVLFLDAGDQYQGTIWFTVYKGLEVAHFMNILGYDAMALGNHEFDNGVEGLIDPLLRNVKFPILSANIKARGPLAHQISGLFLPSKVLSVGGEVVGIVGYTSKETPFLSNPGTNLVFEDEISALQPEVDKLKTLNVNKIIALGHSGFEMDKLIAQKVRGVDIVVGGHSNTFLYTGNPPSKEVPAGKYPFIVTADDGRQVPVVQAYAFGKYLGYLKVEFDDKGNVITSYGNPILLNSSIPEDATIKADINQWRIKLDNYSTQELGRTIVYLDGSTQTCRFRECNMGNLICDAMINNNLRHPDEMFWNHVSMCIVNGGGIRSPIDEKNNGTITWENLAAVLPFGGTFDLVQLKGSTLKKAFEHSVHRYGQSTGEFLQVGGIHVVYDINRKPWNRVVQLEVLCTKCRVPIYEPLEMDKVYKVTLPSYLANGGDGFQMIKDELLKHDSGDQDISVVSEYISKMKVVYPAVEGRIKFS

[4] = molecular target: T4, CD73 on the cell membrane of MDA-MB-231 cells (human breast cancer cells) (human, UniProt P21589 27-549); experiment: cell-based or functional assay
T4 sequence (looked up): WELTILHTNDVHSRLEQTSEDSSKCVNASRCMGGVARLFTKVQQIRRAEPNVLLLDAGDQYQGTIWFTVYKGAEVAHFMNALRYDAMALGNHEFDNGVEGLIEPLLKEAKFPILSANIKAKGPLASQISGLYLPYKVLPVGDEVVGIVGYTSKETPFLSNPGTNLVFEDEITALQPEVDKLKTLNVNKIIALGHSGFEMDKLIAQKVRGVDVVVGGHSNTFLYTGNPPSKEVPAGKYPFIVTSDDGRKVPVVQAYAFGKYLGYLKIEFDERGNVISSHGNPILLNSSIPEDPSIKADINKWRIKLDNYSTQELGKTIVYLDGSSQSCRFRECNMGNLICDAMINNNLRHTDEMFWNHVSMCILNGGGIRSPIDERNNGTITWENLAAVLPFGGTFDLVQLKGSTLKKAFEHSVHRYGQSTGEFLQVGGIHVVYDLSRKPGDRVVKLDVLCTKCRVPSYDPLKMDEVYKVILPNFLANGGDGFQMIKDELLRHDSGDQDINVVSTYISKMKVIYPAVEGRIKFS

[5] = molecular target: T1, 人源hCD73-His (北京义翘神州, Catalog 10904-H08H); experiment: ELISA, hCD73-His coated at 2 μg/ml, antibody from 4 μg/ml in 3-fold steps, anti-h-Kappa-HRP
[6] = molecular target: T4, CD73 on the cell membrane of MDA-MB-231 …; experiment: flow cytometry (MFI) on MDA-MB-231 cells, antibody from 10 ug/ml in 2-fold steps, anti-humanFc-PE

Row | Binder | Kd [1] [nM] | koff [1] [s⁻¹] | kon [1] [M⁻¹ s⁻¹] | EC50 [2] [µg/mL] | binding result [3] | IC50 of the inhibition of the enzyme activity of cell membrane CD73 (MDA-MB-231 cells, AMP/ATP luminescence assay) [4] [µg/mL] | EC50 [5] [µg/mL] | EC50 [6] [µg/mL]
1 | B1 | 8.25 | 0.0068 | 827000 | – | – | – | – | –
2 | B2 | 1.85 | 0.000198 | 107000 | – | – | – | – | –
3 | B3 | 7.67 | 0.00557 | 726000 | – | – | – | – | –
4 | B4 | 0.569 | 0.000126 | 221000 | 0.0427 | no binding (tested: 4μg/ml (highest concentration tested)) | 0.127 | 0.0339 | 0.438
